Measured values from patent US20230242624A1 (NEURIMMUNE, published 2023).
Values joined by “and” are separate entries in the source; they are usually repeats but may differ in a detail not shown here. Identical values can stand only once. Like-named read-outs stand apart in the source and are kept apart here.

T1: MERS-CoV Spike protein fragment (RBD, aa 367-606, His tag) (MERS-CoV, UniProt K9N5Q8 367-606)
T1 sequence: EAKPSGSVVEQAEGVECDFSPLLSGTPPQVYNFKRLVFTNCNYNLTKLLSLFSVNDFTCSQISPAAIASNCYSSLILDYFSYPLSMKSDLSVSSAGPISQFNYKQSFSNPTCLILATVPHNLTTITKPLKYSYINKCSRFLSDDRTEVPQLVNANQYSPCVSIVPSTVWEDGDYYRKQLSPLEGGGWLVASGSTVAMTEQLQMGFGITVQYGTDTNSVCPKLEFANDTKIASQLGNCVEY

B1: NI-607.761_B7 (antibody, V domains shown)
VH: EVQLVESGGGVVQPGRSLRLSCAASGFTFTRYGMHWVRQAPGKGLEWVAVIWYDGNNKNYEDSVRGRFTISRDNSKNTLFLQMNSLRAEDTAVYYCARGRRGGYSYGLFDYWGQGILVTVSS
VL: AIRMTQSPSSLSASVGDRVTITCQASQDISNYLNWYQQKPGKAPKLLIYDASNLETGVPSRFSGSGSGTDFTFTISSLQPEDVATYSCQQYDNLPLTFGGGTKVEIK
B2: NI-607.532_D3 IgG4 (antibody, V domains shown)
VH: EVQLVQSGAEVKRPGASVKVSCKASGYHFTDYYIHWVRQAPGQGLEWMGWINPNSGGTNYAQKFQGRVTMTRDTSISTAYMELSRLRSDDTAVYYCARVYYYDSSSSADYWGQGTLVTVSS
VL: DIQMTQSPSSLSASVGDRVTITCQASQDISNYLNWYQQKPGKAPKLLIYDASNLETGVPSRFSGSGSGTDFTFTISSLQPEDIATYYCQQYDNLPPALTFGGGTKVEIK
B3: NI-607.426_D4 (antibody, V domains shown)
VH: not shown
VL: EIVLTQSPATLSLSPGERATLSCRASQSVSSYLAWYQQKPGQAPRLLIYDASNRATGIPARFSGSGSGTDFTLTISSLEPEDFAVYYCQQRSNWPPVTFGQGTRLEIK
B4: NI-607.531_E7 (antibody, V domains shown)
VH: EVQLVESGGGVVQPGRSLRLSCAASGFTFNFYSMHWVRQVPGKGLEWVAVISFDGSTKHYAESLRGRFAVSRDNSKSTLYLQMNSLRPEDTAVYYCASPPLSPIPAAGTPLDYWGQGTLVTVSS
VL: EIVMTQSPDSLAVSLGERATINCKSSQSIFYRSDDKDFLAWYQQKPGQPPKLLISWASTRESGVPDRFSGSGSGTDFTLTISSLQAEDVAVYYCQQFYYTPFTFGPGTKLEIK
notes: also called F31 E7
B5: NI-607.529_G4 (antibody, V domains shown)
VH: QVQLQQWGAGLLKPSETLSLTCAVYGGSFSGYYWSWIRQPPGKGLEWIGEINHSGSTNYNPSLKSRVTISVDTSKNQFSLKLSSVTAADTAVYYCARASLYYSDSSGYSHPYYFDYWGQGTLVTVSS
VL: QPVLTQPPSVSGAPGQRVTISCTGSSSNIGAGYDVHWYQQLPGTAPKLLIYGNSNRPSGVPDRFSGSKSGMSASLAITGLQAEDEADYYCQSYDSSLSGWVFGGGTKLTVL
B6: NI-607.429_E4 IgG4 (antibody, V domains shown)
VH: QVQLVESGGGLVQPGGSLRLSCAASGFTVSSNYMSWVRQAPGKGLEWVSVIYSGGSTFYADSVKGRFTISRDNSKNTLYLQMNSLRAEDTAVYYCARDLQESGMDVWGQGTTVTVSS
VL: DIQLTQSPSSVSASVGDRVTITCRASQGISSWLAWYQQKPGKAPKLLIYAASSLQSGVPSRFSGSGSGTDFTLTISSLQPEDFATYYCQQANSFPTFGQGTRLEIK
B7: NI-607.531_D8 (antibody, V domains shown)
VH: EVQLVESGGGLVQPGRSLRLSCAASGFIFDDYAMHWVRQAPGKGLEWVSGISWNSDSIGYADSVKGRFTISRDNAKNSLYLQMNSLRAEDTALYYCAKGSRSDWSNPSDYWGQGTLVTVSS
VL: SYELTQPPSVSVAPGKTARITCGGNNIGSKSVHWYQQKPGQAPVLVVYDDSDRPSGIPERFSGSNSGNTATLTISRVEAGDEADYYCQVWDSSSDPVVFGGGTKLTVL
B8: NI-607.532_B6 (antibody, V domains shown)
VH: QVQLVQSGAEVKKPGASVKVSCKASGYTFTSYDINWVRQATGQGLEWMGWMNPNSGNTGYAQKFQGRVTMTRNTSISTAYMELSSLRSEDTAVYYCARVVSLTGFFDYWGQGTLVTVSS
VL: SYELTQPPSVSVAPGKTARITCGGNNIGSKNVHWYQQKPGQAPVLVVYDDSDRPSGIPERFSGSNSGNTATLTISRVEAGDEADYYCQVWDSSSDPWVFGGGTKLTVL
B9: NI-607.532_F3 (antibody, V domains shown)
VH: EVQLVQSGAEVKKPGESLKISCKGFGYIFSNDWIGWVRQKPGKGLEWMGIIYPGDSDTRYSPSFRGQVTISADKSVSTAYLQWDSLKASDTAVYYCTRPRYTTMIVGSNPFDVWGQGTTVTVSS
VL: QSVLTQPPSVSGAPGQRVTISCTGSSSNIGGGYDVHWYQKLPGTAPKLLIFDNDNRPSGVPDRFSGSKSDTSASLTITGLQAEDEADYFCQSYDSSLSGSGVVFGGGTKLTVL
B10: NI-607.426_F11 (antibody, V domains shown)
VH: QVQLVESGGGLVQPGGSLRLSCAASGFTFSSYWMSWVRQAPGKGLEWVANIKQDGSEKYYVDSVKGRFTISRDNAKNSLYLQMNSLRAEDTAVYYCARGLVGQWLGVDYWGQGTLVTVSS
VL: QSVLTQPHSVSESPGKTVTISCTGSSGSIASNYVQWYQQRPGSAPTTVIYEDNQRPSGVPDRFSGSIDSSSNSASLTISGLKTEDEADYYCQSYDSSNWVFGGGTKLTVL
B11: NI-607.529_B9 (antibody, V domains shown)
VH: QVQLQESGPGLVKPSETLSLTCTVSGGSISSSSYYWGWIRQPPGKGLEWIGNIYYSGSTYYNPSLKSRVTISVDTSKNQFSLKLNSVTAADTAVYFCARLLWLRGSYYWGQGTLVTVSS
VL: SYELTQPHSVSESPGKTVTISCTGSSGSIASNYVQWYQQRPGSAPTTVIYEDNQRPSGVPDRFSGSIDSSSNSASLTISGLKTEDEADYYCQSYDSSNWVFGGGTKLTVL
B12: NI-607.649_G7 (antibody, V domains shown)
VH: QVQLVESGGGLVQPGGSLRLSCAASGFTFSRYAMSWVRQAPGKGLEWVSAISGSGGSTYYADSVKGRFTISRDNSKNTLYLQINSLRAEDTAVYYCAKGVRWGVDYFDYWGQGTLVTVSS
VL: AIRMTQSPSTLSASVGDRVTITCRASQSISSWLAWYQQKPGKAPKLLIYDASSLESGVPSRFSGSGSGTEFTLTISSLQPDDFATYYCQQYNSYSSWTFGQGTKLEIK
B13: NI-607.429_B9 (antibody, V domains shown)
VH: EVQLVESGGGLVQPGGSLRLSCAASGFTFSSYWMSWVRQAPGKGLEWVANIKQDGSEKYYVDSVKGRFTISRDNAKNSLYLQMNSLRAEDTAVYYCASLFWRRGSFDPWGQGTLVTVSS
VL: QSVLTQPHSVSESPGKTVTISCTRSTGSIASNYVQWYQQRPGSAPTTVIYEDNQRPSGVPDRFSGSIDSSSNSASLTISGLKTEDEADYYCQSYDTSSYWVFGGGTKLTVL
B14: NI-607.274_B7 (antibody, V domains shown)
VH: QVQLVESGGGRVQPGRSLRLSCAASGFTFSTHGMHWVRQVPGKGLDWITGITYDGSDQFYADSVKGRFTISRDNSKNMLYLQMNSLRAEDTAVYFCAKDLEWLTNYLDHWGQGTLVTVSS
VL: DVVMTQSPGTLSVSPGERATLSCRASQNINYNLAWYQQKPGQAPRLLIFDASTRATGIPARFTGSGSGTEFTLTISSLQSEDFAVYYCQQSNAWLTFGGGTKVEIK
B15: NI-607.274_E5 (antibody, V domains shown)
VH: EVQLVESGGGMVQPGRSLRLSCAGSGFTFSTHGMHWVRQAPGKGLEWITGITYDGSDEFYADSVKGRFTIARDNSKNMLYLQMNSLRAEDTAVYFCAKDLEWLTNYVDHWGQGTLVTVSS
VL: DIVMTQSPGTLSVSPGERATLSCRASQSVNYNLAWYQQKPGQAPRLLIFDASTRATGIPARFTGSGSGTEFTLTISSLQSEDFAVYYCQQSNAWLTFGGGTKLEIK

Tests used:
BSA (Sigma-Aldrich) = target: T2, BSA (Sigma-Aldrich) (bovine, UniProt P02769 25-607); assay: direct ELISA on coated BSA
T2 construct: also called bovine serum albumin; BSA control

[1] = target: T3, SARS-CoV-2-S1 (RBD)-His protein (Trenzyme) (SARS-CoV-2, UniProt P0DTC2 319-541); assay: competition ELISA, RBD binding to coated ACE2
[2] = target: T3, SARS-CoV-2-S1 (RBD)-His protein …; assay: direct ELISA on coated RBD-His
[3] = target: recombinant SARS-CoV Spike protein (RBD, His tag) (SARS-CoV, UniProt P59594 306-527); assay: iQue flow cytometry, antigen-coated beads
[4] = target: T3, SARS-CoV-2-S1 (RBD)-His protein …; assay: iQue flow cytometry, antigen-coated beads
[5] = target: T1, MERS-CoV Spike protein fragment (RBD, …); assay: iQue flow cytometry, antigen-coated beads
[6] = target: T3, SARS-CoV-2-S1 (RBD)-His protein …; assay: competition ELISA, RBD binding to coated ACE2; remark: listed apart in the source
[7] = target: SARS-CoV-2 Spike (S) protein on vesicular stomatitis virus (VSV) pseudoviruses (SARS-CoV-2, UniProt P0DTC2 14-1273); assay: cell-based or functional assay

T2 sequence (P02769 25-607 limits assumed): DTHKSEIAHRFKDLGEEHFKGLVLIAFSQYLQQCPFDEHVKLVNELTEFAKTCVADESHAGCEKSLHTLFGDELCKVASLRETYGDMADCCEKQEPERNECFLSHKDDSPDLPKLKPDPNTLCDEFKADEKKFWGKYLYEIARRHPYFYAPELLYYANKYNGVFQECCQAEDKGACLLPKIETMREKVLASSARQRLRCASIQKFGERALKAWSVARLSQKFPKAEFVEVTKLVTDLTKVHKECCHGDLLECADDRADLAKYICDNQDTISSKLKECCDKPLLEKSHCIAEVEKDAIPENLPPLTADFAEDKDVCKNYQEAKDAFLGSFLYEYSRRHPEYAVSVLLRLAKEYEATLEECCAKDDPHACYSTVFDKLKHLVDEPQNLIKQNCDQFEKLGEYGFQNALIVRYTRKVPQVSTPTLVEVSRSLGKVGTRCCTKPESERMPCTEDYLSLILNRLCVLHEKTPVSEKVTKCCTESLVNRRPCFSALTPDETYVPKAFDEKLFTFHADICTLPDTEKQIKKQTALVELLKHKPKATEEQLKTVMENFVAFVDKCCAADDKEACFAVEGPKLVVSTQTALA

Binder	binding result (BSA (Sigma-Aldrich))	IC50 [1]	EC50 [2]	EC50 [3]	EC50 [4]	EC50 [5]	IC50 [6]	IC50, pseudovirus entry assay (luciferase, HEK 293T-ACE2 cells) [7]
B1	no binding (tested: 400 nM)	56 nM	0.001 nM	200 nM	0.44 nM	200 nM		
B2							~0.457 µg/mL and ~3 nM	
B3	no binding (tested: 400 nM)	24.4 nM	0.033 nM	1000 nM	0.76 nM	1000 nM		
B4		3.67 nM	0.027 nM	600 nM	1.3 nM	800 nM		3.9 µg/mL
B5	no binding (tested: 400 nM)		0.026 nM	10 nM	1.3 nM	1000 nM		> 100 µg/mL
B6							~0.699 µg/mL and ~4.65 nM	
B7	no binding (tested: 400 nM)		0.0045 nM		1.4 nM	1000 nM		> 100 µg/mL
B8	no binding (tested: 400 nM)		0.0045 nM	4.2 nM	1.1 nM	1000 nM		100 µg/mL
B9		0.353 nM	0.019 nM	1.3 nM	1.2 nM	1000 nM		11.7 µg/mL
B10	no binding (tested: 400 nM)	1.14 nM	0.017 nM		0.89 nM	1000 nM		> 100 µg/mL
B11	no binding (tested: 400 nM)	0.116 nM	0.034 nM	20 nM	1 nM	300 nM		1.9 µg/mL
B12			0.024 nM	22.2 nM	5.7 nM	800 nM		> 100 µg/mL
B13	no binding (tested: 400 nM)	0.074 nM	0.014 nM		1.87 nM	600 nM		7.1 µg/mL
B14	no binding (tested: 400 nM)	7.8 nM	0.021 nM		0.67 nM	900 nM		> 100 µg/mL
B15	no binding (tested: 400 nM)	12.6 nM	0.015 nM	900 nM	0.39 nM	900 nM		
